Experimental data as given in patent publication US20070004636.

Legend:
[1] = tested on: T1, human hepatocyte nuclear factor 4α (HNF-4α), His and Xpress-tagged at the N-terminus
T1 sequence: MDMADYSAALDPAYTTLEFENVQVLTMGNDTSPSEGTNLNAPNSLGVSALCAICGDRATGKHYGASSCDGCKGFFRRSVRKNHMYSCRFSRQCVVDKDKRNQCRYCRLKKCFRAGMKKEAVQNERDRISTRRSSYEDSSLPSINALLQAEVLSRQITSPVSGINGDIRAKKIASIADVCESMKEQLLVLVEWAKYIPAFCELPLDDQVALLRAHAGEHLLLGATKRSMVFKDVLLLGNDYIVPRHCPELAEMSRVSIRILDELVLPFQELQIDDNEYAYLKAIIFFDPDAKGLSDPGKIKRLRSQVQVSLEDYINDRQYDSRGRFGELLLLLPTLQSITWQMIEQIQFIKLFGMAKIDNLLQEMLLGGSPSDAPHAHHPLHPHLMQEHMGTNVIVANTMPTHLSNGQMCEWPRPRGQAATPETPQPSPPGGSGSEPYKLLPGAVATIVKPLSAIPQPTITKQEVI

[2] = tested on: human insulin promoter factor 1 (IPF-1), His and Xpress-tagged at the N-terminus
Chain of human insulin promoter factor 1 (IPF-1), His and Xpress-tagged at the N-terminus (chain, as listed by the source): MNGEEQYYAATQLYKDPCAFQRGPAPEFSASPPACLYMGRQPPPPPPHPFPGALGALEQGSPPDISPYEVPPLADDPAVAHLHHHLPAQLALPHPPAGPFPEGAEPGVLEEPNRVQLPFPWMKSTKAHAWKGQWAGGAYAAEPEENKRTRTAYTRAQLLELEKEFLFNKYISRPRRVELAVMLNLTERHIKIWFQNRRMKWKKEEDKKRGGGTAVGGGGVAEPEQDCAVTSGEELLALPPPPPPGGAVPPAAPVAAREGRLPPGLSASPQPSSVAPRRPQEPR

[3] = tested on: human hepatocyte nuclear factor 1α (HNF-1α), His and Xpress-tagged at the N-terminus
Chain of human hepatocyte nuclear factor 1α (HNF-1α), His and Xpress-tagged at the N-terminus (chain, as listed by the source): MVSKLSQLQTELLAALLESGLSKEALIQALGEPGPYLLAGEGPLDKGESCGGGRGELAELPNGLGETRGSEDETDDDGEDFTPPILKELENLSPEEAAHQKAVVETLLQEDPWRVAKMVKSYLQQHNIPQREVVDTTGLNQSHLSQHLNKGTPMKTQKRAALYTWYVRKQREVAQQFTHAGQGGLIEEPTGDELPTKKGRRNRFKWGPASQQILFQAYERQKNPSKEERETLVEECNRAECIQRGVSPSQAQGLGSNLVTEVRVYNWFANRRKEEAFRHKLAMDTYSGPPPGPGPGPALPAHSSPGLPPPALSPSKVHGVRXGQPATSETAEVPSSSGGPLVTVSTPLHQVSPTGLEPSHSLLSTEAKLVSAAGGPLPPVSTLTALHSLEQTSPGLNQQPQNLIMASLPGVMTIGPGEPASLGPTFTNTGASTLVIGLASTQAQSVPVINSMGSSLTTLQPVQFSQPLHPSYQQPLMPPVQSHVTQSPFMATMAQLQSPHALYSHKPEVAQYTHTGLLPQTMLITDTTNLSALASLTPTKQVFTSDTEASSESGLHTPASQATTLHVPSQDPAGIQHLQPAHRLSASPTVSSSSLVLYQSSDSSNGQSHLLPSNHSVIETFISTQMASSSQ

Substance	in vitro protein degradation test, Western blotting with anti-HNF-4α antibody [1]	in vitro protein degradation test, Western blotting with anti-IPF-1 antibody [2]	in vitro protein degradation test, Western blotting with anti-HNF-1α antibody [3]	in vitro protein degradation test, Western blotting with anti-HNF-4α and anti-Xpress antibody [1]	in vitro protein degradation test, Western blotting with anti-Xpress and anti-IPF-1 antibody [2]	in vitro protein degradation test, Western blotting with anti-Omni/M21 and anti-HNF-1α antibody [3]
human m-calpain coexpressed with calpain small subunit 1 in sf-9 insect cells (cell lysate)	the degradation of human HNF-4α by human m-calpain was observed	the degradation of human IPF-1 by human m-calpain was observed	the degradation of human HNF-1α by human m-calpain was observed			
rabbit m-calpain, extracted from rabbit muscle (Protease, Calcium-Activated Neutral (calpain), Sigma Chemical Co.)				the degradation of HNF-4α by rabbit m-calpain was observed	the in vitro degradation of IPF-1 by each of human µ-calpain, rabbit m-calpain and rat m-calpain was observed	the in vitro degradation of HNF-1α by each of human µ-calpain, rabbit m-calpain and rat m-calpain was observed
